From patent publication US10052364B2, “Osteocalcin as a treatment for cognitive disorders” (THE TRUSTEES OF COLUMBIA UNIVERSITY IN THE CITY OF NEW YORK, priority 2013, dated 2018)

What was measured:
[1] = Blood brain barrier crossing: subcutaneous osteocalcin infusion, content measured in blood, bone and parts of the brain by ELISA; assay type: in vivo, mouse; conditions: subcutaneous pump, uncarboxylated osteocalcin 50 ng/hour, seven days, three-month-old Osteocalcin-/- mice
Protocol: FIG. 3. Osteocalcin binds to neurons in the brain. (A) Measurement of the total osteocalcin in 3 month-old Osteocalcin^−/− mice infused subcutaneously for 7 days with either uncarboxylated osteocalcin (300 ng/hour, right panel) or PBS (left panel). Osteocalcin levels were measured in bone, serum, and different parts of the brain (cortex, midbrain, hypothalamus, brainstem, and cerebellum). (B) Subcutaneous infusion of leptin ([…], right panel) or PBS (left panel) for 7 days in ob/ob mice. Leptin levels were measured in serum, cortex, midbrain, hypothalamus, brainstem, and cerebellum. […]
Osteocalcin^−/−, Gprc6a^−/−, Osteocalcin-mCherry, and Osteocalcin floxed mice have been previously described (Ducy et al., 1996, Nature 382:448-452; Oury et al., 2011, Cell 144:796-809). Mouse genotypes were determined by PCR. […] Leptin and osteocalcin content in sera and tissues were determined by ELISA.
To understand how this behavioral phenotype develops, whether osteocalcin crosses the blood brain barrier (BBB) was tested by installing pumps that subcutaneously delivered vehicle or uncarboxylated osteocalcin (50 ng/hour) in three-month-old Osteocalcin^−/− mice. […] Seven days later, osteocalcin and leptin content were measured in blood, bone, and in various parts of the brain in Osteocalcin−/− and ob/ob mice, respectively. […]

aged WT mice = test: ICV infusion in aged WT mice, Novel Object Recognition test; assay type: in vivo, mouse; conditions: ICV 10 ng/hr for one month, 16 month old WT mice
Protocol: FIG. 9. Osteocalcin improves hippocampal function in aged wild-type (WT) mice. Constant and novel object investigation in the Novel Object Recognition test in 17 month old mice treated for 1 month with vehicle or 10 ng/hr recombinant uncarboxylated osteocalcin.
ICV pumps delivering (10 ng/hr) recombinant uncarboxylated full-length mouse osteocalcin were implanted in 16 month old WT mice. After an infusion period of one month, the mice were subjected to a modified version of the Novel Object Recognition test, to assay memory and hippocampal function. Briefly, mice were given five 5 minute exposures, with 3 minute resting intervals between exposures, to a novel arena containing two objects. During exposures 1-4, mice were habituated to these two objects, which elicited equal amounts of exploration. In the fifth exposure, one of the objects was replaced with a novel object.

[2] = test system: mouse primary hindbrain neurons (MPHN); test: Calcium flux in primary hindbrain neurons; assay type: cell-based; conditions: MPHN treated with undercarboxylated or carboxylated osteocalcin
Protocol: For calcium imaging, primary hindbrain neurons seeded on 12 mm coverslips were allowed the appropriate time to form structural networks. These cultures were washed with HBSS and loaded with 2.5 μM FURA-2, AM calcium indicator for 45 minutes at room temperature, according to the manufacturer's protocol. Cells were then washed to remove excess indicator and incubated for 30 minutes to allow internalized esters to become de-esterified. 30 ng/ml of osteocalcin was prepared with the control buffer of 1×HBBS supplemented with 10 mM HEPES buffer and 2 mM CaCl2. Using a Zeiss microscope with a perfusion system, coverslips were first perfused with control and osteocalcin. After each stimulation, cells were depolarized with 50 mM KCl to determine the percentage of live cells being imaged. All treatments were recorded using two-photon laser scanning microscopy by Prairie Technologies and analyzed by Z axis profile plotting using ImageJ.
To determine if osteocalcin acts directly on neurons to modulate neurotransmitter synthesis, several types of assays were performed. First, brainstem and midbrain explants from WT and Gprc6a^−/− mice were generated. […] Third, to further confirm that osteocalcin signals in neurons of the hindbrain, calcium flux in MPHN treated with undercarboxylated or carboxylated osteocalcin (FIG. 3F) was measured. […]

B1: uncarboxylated osteocalcin: Recombinant osteocalcin bacterially produced, cleaved from the GST subunit; completely undercarboxylated at all three sites (protein, listed as Homo sapiens)
chain: MRALTLLALLALAALCIAGQAGAKPSGAESSKGAAFVSKQEGSEVVKRPRRYLYQWLGAPVPYPDPLEPRREVCELNPDCDELADHIGFQEAYRRFYGPV
modifications: uncarboxylated
notes: Recombinant osteocalcin bacterially produced, cleaved from the GST subunit; completely undercarboxylated at all three sites
osteocalcin concentration in brainstem, thalamus and hypothalamus relative to that observed in serum [1]: ~50%
discrimination between novel and constant objects (aged WT mice): able to discriminate between the novel and constant objects
calcium fluxes in primary hindbrain neurons [2]: induced changes in calcium fluxes
